Measurements taken from paper PMC10626543, “Native lamin A/C proteomes and novel partners from heart and skeletal muscle in a mouse chronic inflammation model of human frailty” (Frontiers in Cell and Developmental Biology, 2023).

T1: recombinant lamin A tail (residues 385–646 of human mature lamin A) (human, UniProt P02545 385-646)
T1 construct: lamin A, human, residues 385-646 of mature lamin A: flexible linker 385-429, Ig-fold 430-544, disordered 545-646; also called lamin A tails; LamA; not shown: His tag, C-terminal, kept
T1 sequence (looked up): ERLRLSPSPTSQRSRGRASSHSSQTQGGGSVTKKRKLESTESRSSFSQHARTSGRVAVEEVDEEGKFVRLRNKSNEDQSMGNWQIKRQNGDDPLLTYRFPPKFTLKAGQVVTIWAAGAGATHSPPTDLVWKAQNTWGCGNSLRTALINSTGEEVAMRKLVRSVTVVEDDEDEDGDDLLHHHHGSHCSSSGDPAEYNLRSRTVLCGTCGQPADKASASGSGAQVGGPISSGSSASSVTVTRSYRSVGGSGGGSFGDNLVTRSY


target: T1, recombinant lamin A tail (residues …); experiment: peptide or protein array; synthetic 20-mer peptides (7-residue offset) on cellulose; probed 3 h at room temperature with 190 nM His-tagged lamin A tail in casein blocking solution (TBS-T, sucrose, pH 7.0); bound lamin detected with anti-lamin A/C clone 14 and AP-conjugated secondary antibody; two experiments, each with an antibodies-only control; conditions: both partners purified

| Binder | binding result |
| --- | --- |
| YGRALQASALKAWGGKKENL (AldoA, human, residues 302-321; source: synthetic peptide, on cellulose array) [AldoA peptide r19 (aa 302–321)] | binds |
| EENEEAEAAAAGQDPAGVQW (Perm1, human, residues 593-612; source: synthetic peptide, on cellulose array) [Perm1 peptide i4 (aa 593–612)] | binds |
| QTATGAHGGPGAWEAVAVGP (Perm1, human, residues 529-548; source: synthetic peptide, on cellulose array) [Perm1 peptide h16 (aa 529–548)] | binds |
| FVAFATWAVRTSDPHTPDAW (Perm1, human, residues 737-756; source: synthetic peptide, on cellulose array) [Perm1 peptide j2 (aa 737–756)] | binds |
| PWALTFSYGRALQASALKAW (AldoA, human, residues 295-314; source: synthetic peptide, on cellulose array) [AldoA peptide r18 (aa 295–314)] | binds |
| SSGLVSTPVPRADAAGLAWP (Perm1, human, residues 441-460; source: synthetic peptide, on cellulose array) [Perm1 peptide h5 (aa 441–460)] | binds |
| PKFTLKAGQVVTIWAAGAGA (prelamin A, human, residues 485-504 (Ig-fold); source: synthetic peptide, on cellulose array) [prelamin A peptide W19 (aa 485–504)] | binds |
| YLKYEPGAVELSRRHPIASW (Tmem38a, human, residues 36-55; source: synthetic peptide, on cellulose array) [Tmem38A peptide j13 (aa 36–55)] | binds |
| KFVRLRNKSNEDQSMGNWQI (prelamin A, human, residues 450-469 (Ig-fold); source: synthetic peptide, on cellulose array) [prelamin A peptide W14 (aa 450–469)] | binds |

Further lines, results first:

| binding result | Binder |
| --- | --- |
| binds | FTLQQTRWLPVSKASLIFIF (Tmem38a, human, residues 197-216; source: synthetic peptide, on cellulose array) [Tmem38A peptide k16 (aa 197–216)] |
| binds | SGCDEIIFAEDYQRVEDLAW (Lmcd1, human, residues 309-328 (second LIM domain); source: synthetic peptide, on cellulose array) [Lmcd1 peptide v17 (aa 309–328)] |
| binds | AAGAGATHSPPTDLVWKAQN (prelamin A, human, residues 499-518 (Ig-fold); source: synthetic peptide, on cellulose array) [prelamin A peptide X1 (aa 499–518)] |
| binds | KGSGVALMSNFEQLLRGVWK (Tmem38a, human, residues 155-174; source: synthetic peptide, on cellulose array) [Tmem38A peptide k10 (aa 155–174)] |
| binds | SALKAWGGKKENLKAAQEEY (AldoA, human, residues 309-328; source: synthetic peptide, on cellulose array) [AldoA peptide r20 (aa 309–328)] |
